The subject of data set [1] is Saccharomyces cerevisiae. The experiment in a line: protein stability index of tFT-peptide fusion (C-terminal peptide) (PSI (0-1 scale)); higher = more stable (slower turnover). The method, then: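 MPS profiling in S. cerevisiae of the tFT-X12 degron library: putative degron peptides plus stable controls, 12 aa, fused to the C-terminus of a sfGFP-mCherry timer. Cells are FACS-sorted into 8 mCherry/sfGFP bins and deep-sequenced. PSI runs from 0 (unstable) to 1 (stable). Backgrounds are wild type, das1Δ and doa10Δ at 30 °C, and wild type, das1Δ, cdc34-1 and cdc53-1 at 37 °C; 2-3 technical replicates each.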

In data set [2] the test system is Saccharomyces cerevisiae. Described as above. Conditions: genetic background: wild type; temperature: 30 C.
Where [3] appears, read: genetic background: cdc34-1, temperature: 37 C.
[4] abbreviates: genetic background: cdc53-1, temperature: 37 C.
Where [5] appears, read: genetic background: das1 deletion, temperature: 30 C.
Setting [6] is: genetic background: das1 deletion, temperature: 37 C.
The mark [7] stands for this setting: genetic background: doa10 deletion, temperature: 30 C.
The mark [8] stands for this setting: genetic background: wild type, temperature: 30 C.
The mark [9] stands for this setting: genetic background: wild type, temperature: 37 C.

These results are taken from the supplement of paper PMC10724198.

± gives the standard deviation of the averaged measurements.
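Note: PSI is a weighted mean of sequencing reads over stability bins, variants kept only with over 10 reads, mCherry proximal and sfGFP distal, peptide attached via GGGS linker.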

As to LCARVCITFNIV, the protein stability index in data set [1] (setting [3]) is 0.517 ± 0.033; in data set [1] (setting [4]) it was 0.578 ± 0.054; in data set [1] (setting [5]), 0.458 ± 0.013; in data set [1] (setting [6]) it was 0.4975 ± 0.0038; in data set [1] (setting [7]), 0.4011 ± 0.004; in data set [1] (setting [8]) it was 0.438 ± 0.035. Moreover, the protein stability index worked out at 0.481 ± 0.014 in data set [1] (setting [9]) and 0.457 ± 0.016 in data set [2].

For the sequence LCWLVHFFLWVS, the protein stability index amounted to 0.35 ± 0.081 in data set [1] (setting [3]); 0.431 ± 0.0079 in data set [1] (setting [4]); 0.312 ± 0.024 in data set [1] (setting [5]); 0.442 ± 0.023 in data set [1] (setting [6]); 0.253 ± 0.013 in data set [1] (setting [7]); 0.238 ± 0.017 in data set [1] (setting [8]). Moreover, the protein stability index in data set [1] (setting [9]) amounted to 0.393 ± 0.0092; in data set [2], 0.288 ± 0.018.

For the sequence LESYGLRDSTSG, the protein stability index worked out at 0.641 ± 0.05 in data set [1] (setting [3]); 0.651 ± 0.032 in data set [1] (setting [4]); 0.638 ± 0.099 in data set [1] (setting [5]); 0.741 ± 0.042 in data set [1] (setting [6]); 0.65 ± 0.0099 in data set [1] (setting [7]); 0.681 ± 0.044 in data set [1] (setting [8]). The protein stability index was determined as 0.69 ± 0.018 in data set [1] (setting [9]) and 0.621 ± 0.27 in data set [2].

Consider LFCVCFYGRIFL, for which the protein stability index stood at 0.443 ± 0.017 in data set [1] (setting [3]); 0.556 ± 0.038 in data set [1] (setting [4]); 0.335 ± 0.028 in data set [1] (setting [5]); 0.526 ± 0.018 in data set [1] (setting [6]); 0.328 ± 0.018 in data set [1] (setting [7]); 0.334 ± 0.022 in data set [1] (setting [8]). The protein stability index amounted to 0.5 ± 0.011 in data set [1] (setting [9]) and 0.423 ± 0.0066 in data set [2].

Regarding LFFCYRVFLLVF, the protein stability index was 0.132 ± 0.01 in data set [1] (setting [3]); 0.152 ± 0.0027 in data set [1] (setting [4]); 0.199 ± 0.023 in data set [1] (setting [5]); 0.243 ± 0.006 in data set [1] (setting [6]); 0.121 ± 0.016 in data set [1] (setting [7]); 0.106 ± 0.026 in data set [1] (setting [8]). For the same sequence, the protein stability index amounted to 0.1719 ± 0.00093 in data set [1] (setting [9]) and 0.185 ± 0.019 in data set [2].

In the case of LFFGFFLIYFLG, the protein stability index in data set [1] (setting [3]) amounted to 0.428 ± 0.048; in data set [1] (setting [4]), 0.4839 ± 0.0013; in data set [1] (setting [5]) it was 0.384 ± 0.034; in data set [1] (setting [6]) it was 0.495 ± 0.0074; in data set [1] (setting [7]), 0.266 ± 0.014; in data set [1] (setting [8]), 0.278 ± 0.018. Besides, the protein stability index was 0.424 ± 0.032 in data set [1] (setting [9]) and 0.353 ± 0.044 in data set [2].

Turning to LFFVVFFLLFLL, the protein stability index in data set [1] (setting [3]) stood at 0.402 ± 0.0091; in data set [1] (setting [4]), 0.446 ± 0.028; in data set [1] (setting [5]), 0.36 ± 0.026; in data set [1] (setting [6]) it was 0.477 ± 0.029; in data set [1] (setting [7]) it was 0.389 ± 0.0099; in data set [1] (setting [8]) it was 0.337 ± 0.023. In addition, the protein stability index in data set [1] (setting [9]) came to 0.453 ± 0.026; in data set [2], 0.411 ± 0.025.

As to LFFWFMYLRRLI, the protein stability index in data set [1] (setting [3]) was found to be 0.252 ± 0.019; in data set [1] (setting [4]) it was 0.238 ± 0.0044; in data set [1] (setting [5]), 0.403 ± 0.041; in data set [1] (setting [6]), 0.524 ± 0.11; in data set [1] (setting [7]) it was 0.22 ± 0.0085; in data set [1] (setting [8]) it was 0.151 ± 0.01. The protein stability index in data set [1] (setting [9]) turned out to be 0.164 ± 0.0084; in data set [2], 0.172 ± 0.033.

Turning to LFHSFFLYCLMS, the protein stability index was 0.56 ± 0.017 in data set [1] (setting [3]); 0.5796 ± 0.0031 in data set [1] (setting [4]); 0.616 ± 0.042 in data set [1] (setting [5]); 0.662 ± 0.04 in data set [1] (setting [6]); 0.5838 ± 0.0054 in data set [1] (setting [7]); 0.541 ± 0.022 in data set [1] (setting [8]). Besides, the protein stability index in data set [1] (setting [9]) is 0.6 ± 0.045; in data set [2] it was 0.482 ± 0.015.
